Reference: patent publication US20150246136A1 (Bayer, published 2015)

T1: C4.4a (Homo sapiens, UniProt O95274 31-326)
T1 sequence (looked up): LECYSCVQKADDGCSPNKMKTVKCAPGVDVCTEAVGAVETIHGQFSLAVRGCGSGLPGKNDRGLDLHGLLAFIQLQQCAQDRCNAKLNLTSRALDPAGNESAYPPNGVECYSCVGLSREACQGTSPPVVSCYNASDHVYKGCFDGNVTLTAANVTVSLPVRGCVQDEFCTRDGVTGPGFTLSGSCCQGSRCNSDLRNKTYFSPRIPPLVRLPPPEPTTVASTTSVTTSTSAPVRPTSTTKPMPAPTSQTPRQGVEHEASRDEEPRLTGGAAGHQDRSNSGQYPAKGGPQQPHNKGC

B1: Example 215 (antibody, human IgG1, lambda, V domains shown)
VH: EVQLLESGGGLVQPGGSLRLSCAASGFTFSSAWMSWVRQAPGKGLEWVSYISSSGSTIYYADSVKGRFTISRDNSKNTLYLQMNSLRAEDTAVYYCAREGLWAFDYWGQGTLVTVSS
VL: QSVLTQPPSVSGAPGQRVTISCTGSSSNIGAGYVVHWYQQLPGTAPKLLIYDNNKRPSGVPDRFSGSKSGTSASLAISGLRSEDEADYYCAAYDDSLSGPVFGGGTKLTVLG
modifications: linker-toxophore on cysteine S
B2: Example 217 (antibody, human IgG1, lambda, V domains shown)
VH: EVQLLESGGGLVQPGGSLRLSCAASGFTFSDYQMTWIRQTPGKGLEWVSGISWNGGSTHYADSVKGRFTISRDNSKNTLYLQMNSLRAEDTAVYYCAKGDYLVYSSYYFKSWGQGTLVTVSS
VL: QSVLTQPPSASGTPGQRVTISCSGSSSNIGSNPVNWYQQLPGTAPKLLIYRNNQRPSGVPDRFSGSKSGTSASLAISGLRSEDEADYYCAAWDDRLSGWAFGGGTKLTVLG
modifications: linker-toxophore on cysteine S

Molecular target: T1, C4.4a
Experiment: cell-based or functional assay

| IC50 (nM) A549: C4.4a | Binder |
| --- | --- |
| 0.046 nM | B1 |
| 0.053 nM | B2 |
